Reference: patent US20140255408A1 (Janssen / Centocor, published 2014)
Where two headings read alike, the source gives them in different places.

Tests used:
human EGFR on cells [1] = target: T1, human EGFR on cells (human, UniProt P00533 25-1210); assay: A431 cell EGF competition assay, competitor biotinylated EGF
T1 construct: Wild type EGFR on A431, NCI-H292, NCI-H322, NCI-H441 and SNU-5 cells; in U-2 OS cells a beta-galactosidase fragment was fused to its C-terminus; also called epidermal growth factor receptor; HER1

human EGFR on cells [2] = target: T1, human EGFR on cells; assay: A431 cell binding assay, anti-penta-His-Alexa488 detection
[3] = target: T2, recombinant human extracellular domain of EGFR fused to an IgG1 Fc (human, UniProt P00533 25-645); assay: SPR (ProteOn), EGFR-Fc captured on anti-human Fc IgG, FN3 domain as analyte
T2 construct: Bought from R&D Systems; The residues are stated for the panning reagent; also called EGFR-Fc; EGF R-Fc; not shown: IgG1 Fc
Method: Select EGFR-binding FN3 domains were screened to identify those with slow off-rates (koff) in binding to EGFR-Fc on a ProteOn XPR-36 instrument (Bio-Rad) to facilitate selection of high affinity binders. Goat anti-human Fc IgG (R&D systems), at a concentration of 5 μg/mL, was directly immobilized via amine coupling (at pH 5.0) on all 6 ligand channels in horizontal orientation on the chip with a flow rate of 30 μL/min in PBS containing 0.005% Tween-20. The immobilization densities averaged about 1500 Response Units (RU) with less than 5% variation among different channels. EGFR-Fc was captured on the anti-human Fc IgG surface to a density around 600 RU in vertical ligand orientation. All tested FN3 domains were normalized to a concentration of […] and tested for their binding in horizontal orientation. All 6 analyte channels were used for the FN3 domains to maximize screening throughput. The dissociation phase was monitored for 10 minutes at a flow rate of 100 μL/min. The inter-spot binding signals were used as references to monitor non-specific binding between analytes and the immobilized IgG surface, and were subtracted from all binding responses. The processed binding data were locally fit to a 1:1 simple Langmuir binding model to extract the koff for each FN3 domain binding to captured EGFR-Fc.
Binding affinity of selected EGFR-binding FN3 domains to recombinant EGFR extracellular domain was further characterized by surface Plasmon resonance methods using a Proteon Instrument (BioRad). The assay set-up (chip preparation, EGFR-Fc capture) was similar to that described above for off-rate analysis. Selected EGFR binding FN3 domains were tested at 1 μM concentration in 3-fold dilution series in the horizontal orientation. A buffer sample was also injected to monitor the baseline stability.

human EGFR on cells [4] = target: T1, human EGFR on cells; assay: cell-based or functional assay
human c-Met on cells [5] = target: T3, human c-Met on cells (human, UniProt P08581 25-1390); assay: H441 cell binding assay, anti-His detection
T3 construct: c-Met on NCI-H441, NCI-H292, NCI-H1975 and U87-MG cells; in U-2 OS cells a beta-galactosidase fragment was fused to its C-terminus; also called hepatocyte growth factor receptor
Method: Purified FN3 domains (50 μL/well; 0 to 1000 nM) were added to the cells for 1 hour at 4° C. in duplicate plates. […] Cells were incubated with biotinylated-anti HIS antibody (diluted 1:160 in FACS stain buffer, 50 μL/well, R&D Systems, cat #BAM050) for 30 minutes at 4° C. […] Cells were washed three times with FACS stain buffer (150 μL/well) and left in FACS stain buffer (50 μL/well).

human c-Met on cells [6] = target: T3, human c-Met on cells; assay: cell-based or functional assay
human c-Met on cells [7] = target: T3, human c-Met on cells; assay: cell-based or functional assay; remark: listed apart in the source
[8] = target: T4, Recombinant human c-Met Fc chimera (human, UniProt P08581 16-932); assay: SPR (ProteOn), c-Met-Fc captured on anti-human Fc IgG, FN3 domain as analyte
T4 construct: not shown: Fc part

[9] = target: T4, Recombinant human c-Met Fc chimera; assay: HGF competition assay on coated c-Met-Fc, competitor biotinylated HGF
[10] = target: T4, Recombinant human c-Met Fc chimera; assay: SPR (ProteOn), protocol of Example 3, recombinant c-Met extracellular domain
[11] = target: T2, recombinant human extracellular domain …; assay: SPR (ProteOn), protocol of Example 3, recombinant EGFR extracellular domain
Method: All 6 analyte channels were used for the FN3 domains to maximize screening throughput. The dissociation phase was monitored for 10 minutes at a flow rate of 100 μL/min. The inter-spot binding signals were used as references to monitor non-specific binding between analytes and the immobilized IgG surface, and were subtracted from all binding responses. The processed binding data were locally fit to a 1:1 simple Langmuir binding model to extract the koff for each FN3 domain binding to captured EGFR-Fc.
Binding affinity of selected EGFR-binding FN3 domains to recombinant EGFR extracellular domain was further characterized by surface Plasmon resonance methods using a Proteon Instrument (BioRad). The assay set-up (chip preparation, EGFR-Fc capture) was similar to that described above for off-rate analysis. Selected EGFR binding FN3 domains were tested at 1 μM concentration in 3-fold dilution series in the horizontal orientation. A buffer sample was also injected to monitor the baseline stability. […] Two sets of reference data were subtracted from the response data: 1) the inter-spot signals to correct for the non-specific interactions between the EGFR-binding FN3 domain and the immobilized IgG surface; 2) the buffer channel signals to correct for baseline drifting due to the dissociation of captured EGFR-Fc surface over time. The processed binding data at all concentrations for each FN3 domain were globally fit to a 1:1 simple Langmuir binding model to extract estimates of the kinetic (kₘ, koff) and affinity (KD) constants.

human c-Met on cells [12] = target: T3, human c-Met on cells; assay: cell-based or functional assay; remark: listed apart in the source
human EGFR on cells [13] = target: T1, human EGFR on cells; assay: cell-based or functional assay; remark: listed apart in the source

IC50 (human EGFR on cells [1]) [µM]	EC50 (human EGFR on cells [2]) [µM]	Kd [3] [µM]	Phospho-EGFR IC50 (A431 cells) (human EGFR on cells [4]) [µM]	Kd [10] [µM]	Kd [11] [µM]	pMet inhibition in H441 cells (IC50) (human c-Met on cells [12]) [nM]	H292 pEGFR inhibition in H292 cells (IC50) (human EGFR on cells [13]) [nM]	Binder	also measured
–	–	–	–	0.0017	0.0013	24.2	16.6	ECB97 (designed binder, not shown: C-terminal poly-histidine tag) MLPAPKNLVVSEVTEDSARLSWDDPWAFYESFLIQYQESEKVGEAIVLTVPGSERSYDLTGLKPGTEYTVSIYGVHNVYKDTNIRGLPLSAIFTTAPAPAPAPAPLPAPKNLVVSRVTEDSARLSWTAPDAAFDSFWIRYFEFLGSGEAIVLTVPGSERSYDLTGLKPGTEYVVNILSVKGGSISPPLSAIFTT	–
–	–	–	–	0.0051	0.0167	53.3	367	ECB106 (designed binder, not shown: C-terminal poly-histidine tag) MLPAPKNLVVSEVTEDSARLSWDDPHAFYESFLIQYQESEKVGEAIVLTVPGSERSYDLTGLKPGTEYTVSIYGVHNVYKDTNIRGLPLSAIFTTAPAPAPAPAPLPAPKNLVVSRVTEDSARLSWTAPDAAFDSFWIRYFEFLGSGEAIVLTVPGSERSYDLTGLKPGTEYVVNILGVKGGKISPPLSAIFTT	–
–	–	–	–	0.0021	0.0173	26	432	ECB109 (designed binder, not shown: C-terminal poly-histidine tag) MLPAPKNLVVSEVTEDSARLSWDDPHAFYESFLIQYQESEKVGEAIVLTVPGSERSYDLTGLKPGTEYTVSIYGVHNVYKDTNIRGLPLSAIFTTAPAPAPAPAPLPAPKNLVVSRVTEDSARLSWTAPDAAFDSFWIRYFEFLGSGEAIVLTVPGSERSYDLTGLKPGTEYVVNILSVKGGSISPPLSAIFTT	–
–	–	–	–	0.009	0.0169	29.9	812	ECB107 (designed binder, not shown: C-terminal poly-histidine tag) MLPAPKNLVVSEVTEDSARLSWDDPHAFYESFLIQYQESEKVGEAIVLTVPGSERSYDLTGLKPGTEYTVSIYGVHNVYKDTNIRGLPLSAIFTTAPAPAPAPAPLPAPKNLVVSRVTEDSARLSWTAPDAAFDSFWIRYFEFVGSGEAIVLTVPGSERSYDLTGLKPGTEYVVNILGVKGGSISPPLSAIFTT	–
–	–	–	–	0.0255	0.0153	126	814	ECB108 (designed binder, not shown: C-terminal poly-histidine tag) MLPAPKNLVVSEVTEDSARLSWDDPHAFYESFLIQYQESEKVGEAIVLTVPGSERSYDLTGLKPGTEYTVSIYGVHNVYKDTNIRGLPLSAIFTTAPAPAPAPAPLPAPKNLVVSRVTEDSARLSWTAPDAAFDSFWIRYFEFVSKGDAIVLTVPGSERSYDLTGLKPGTEYVVNILGVKGGSISPPLSAIFTT	–

The next lines start with the binder.

Binder	IC50 (human EGFR on cells [1]) [µM]	EC50 (human EGFR on cells [2]) [µM]	Kd [3] [µM]	Phospho-EGFR IC50 (A431 cells) (human EGFR on cells [4]) [µM]	Kd [10] [µM]	Kd [11] [µM]	pMet inhibition in H441 cells (IC50) (human c-Met on cells [12]) [nM]	H292 pEGFR inhibition in H292 cells (IC50) (human EGFR on cells [13]) [nM]	also measured
P53A1R5-17 (designed binder, not shown: small tags and cut ends) LPAPKNLVVSEVTEDSLRLSWADPHGFYDSFLIQYQESEKVGEAINLTVPGSERSYDLTGLKPGTEYTVSIYGVHNVYKDTNMRGLPLSAEFTT	0.0098	0.004	0.00189	> 2.5	–	–	–	–	NCI-H292 Growth IC50 (human EGFR on cells [4]): 0.086 µM; NCI-H322 Growth IC50 (human EGFR on cells [4]): 0.065 µM
P54AR4-17 (designed binder, not shown: small tags and cut ends) LPAPKNLVVSEVTEDSLRLSWTYDRDGYDSFLIQYQESEKVGEAINLTVPGSERSYDLTGLKPGTEYTVSIYGVHNVYKDTNMRGLPLSAEFTT	0.021	0.016	0.00962	0.184	–	–	–	–	–
P54AR4-74 (designed binder, not shown: small tags and cut ends) LPAPKNLVVSEVTEDSLRLSWGYNGDHFDSFLIQYQESEKVGEAINLTVPGSERSYDLTGLKPGTEYTVSIYGVHNVYKDTNMRGLPLSAEFTT	–	0.077	–	–	–	–	–	–	–
P54AR4-48 (designed binder, not shown: small tags and cut ends) LPAPKNLVVSEVTEDSLRLSWDDPRGFYESFLIQYQESEKVGEAINLTVPGSERSYDLTGLKPGTEYTVSIYGVHNVYKDTNMRGLPLSAEFTT	0.0098	0.012	0.00778	0.17	–	–	–	–	–
P54AR4-73 (designed binder, not shown: small tags and cut ends) LPAPKNLVVSEVTEDSLRLSWTWPYADLDSFLIQYQESEKVGEAINLTVPGSERSYDLTGLKPGTEYTVSIYGVHNVYKDTNMRGLPLSAEFTT	0.0046	0.0094	0.000197	0.141	–	–	–	–	NCI-H292 Growth IC50 (human EGFR on cells [4]): 0.083 µM; NCI-H322 Growth IC50 (human EGFR on cells [4]): 0.073 µM
P54AR4-83 (designed binder, not shown: small tags and cut ends) LPAPKNLVVSEVTEDSLRLSWDDPWAFYESFLIQYQESEKVGEAINLTVPGSERSYDLTGLKPGTEYTVSIYGVHNVYKDTNMRGLPLSAEFTT	0.0018	0.0022	0.000255	0.018	–	–	–	–	NCI-H292 Growth IC50 (human EGFR on cells [4]): 0.0059 µM; NCI-H322 Growth IC50 (human EGFR on cells [4]): 0.0092 µM
P114AR5P74-A5 (designed binder, not shown: small tags and cut ends) LPAPKNLVVSRVTEDSARLSWTAPDAAFDSFWIRYDEVVVGGEAIVLTVPGSERSYDLTGLKPGTEYYVNILGVKGGSISVPLSAIFTT	–	–	–	–	–	–	–	–	EC50 (human c-Met on cells [5]): 0.0187 µM; inhibition of c-Met phosphorylation in HGF-stimulated NCI-H292 cells (IC50) (human c-Met on cells [6]): 0.61 µM; Inhibition of Proliferation of U87-MG cells (IC50) (human c-Met on cells [7]): 0.464 µM; pMet inhibition in H441 cells (IC50) (human c-Met on cells [7]): 1080 nM; Kd [8]: 0.0101 µM; IC50 [9]: 0.0052 µM
ECB96 (designed binder, not shown: C-terminal poly-histidine tag) MLPAPKNLVVSEVTEDSARLSWDDPWAFYESFLIQYQESEKVGEAIVLTVPGSERSYDLTGLKPGTEYTVSIYGVHNVYKDTNIRGLPLSAIFTTAPAPAPAPAPLPAPKNLVVSRVTEDSARLSWTAPDAAFDSFWIRYFEFVSKGDAIVLTVPGSERSYDLTGLKPGTEYVVNILGVKGGSISPPLSAIFTT	–	–	–	–	0.0221	0.0016	835	24.7	–
P54AR4-81 (designed binder, not shown: small tags and cut ends) LPAPKNLVVSEVTEDSLRLSWDYDLGVYFDSFLIQYQESEKVGEAINLTVPGSERSYDLTGLKPGTEYTVSIYGVHNVYKDTNMRGLPLSAEFTT	0.121	0.084	–	–	–	–	–	–	–
